Results as given in patent US20230235027A1 (US Dept. of Health and Human Services, published 2023).
Substitutions are numbered along the chain they refer to. Where “and” joins values, the source holds several entries; their conditions need not be identical. Identical values can stand only once. Like-named read-outs stand apart in the source and are kept apart here.

Columns and labels:
[1] = molecular target: T1, Biotinylated SARS-CoV-2 S protein RBD with a C-terminal AviTag (SARS-CoV-2, UniProt P0DTC2 319-541)
[2] = molecular target: T2, SARS-CoV-2 spike protein receptor binding domain (RBD), recombinant (SARS-CoV-2, UniProt P0DTC2 319-541); test: kinetic measurement, method not stated; table row prototype RBD
[3] = molecular target: T2, SARS-CoV-2 spike protein receptor …; test: competition ELISA, RBD coated, competitor biotinylated ACE2
[4] = molecular target: T2, SARS-CoV-2 spike protein receptor …; test: ELISA: coated SARS-CoV-2 RBD, NIH-CoVnb-112 titrated, absorbance 450 nm
[5] = molecular target: T2, SARS-CoV-2 spike protein receptor …; test: direct binding to RBD wild type (FIG. 7B); format not described further
[6] = molecular target: T2, SARS-CoV-2 spike protein receptor …
[7] = molecular target: T1, Biotinylated SARS-CoV-2 S protein RBD …; remark: listed apart in the source
[8] = molecular target: T2, SARS-CoV-2 spike protein receptor …; remark: listed apart in the source
[9] = molecular target: T3, SARS-CoV-1 spike protein RBD (SARS-CoV-1, UniProt P59594 306-527); test: ELISA: coated SARS-CoV-1 RBD, NIH-CoVnb-112 titrated, absorbance 450 nm
T3 construct: domain: RBD

[10] = molecular target: T1, Biotinylated SARS-CoV-2 S protein RBD …; test: biolayer interferometry (FIG. 7C)

B1: NIH-CoVnb-108 (VHH, not shown: large carriers)
VHH: DVQLQESGGGLVQPGGSLRLSCAASGFTLDYYAIGWFRQAPGKEREGVSCISNSGGSTYYADSVKGRFTTSRDNAKNTVYLQMNSLKPEDTAVYYCAAVPSTYYSGSYYYTCHPGGMDYWGKGTQVTVSS
B1 showed a Kd [1] of 26.6 nM, a koff [1] of 0.00109 s⁻¹ and a kon [1] of 40900 M⁻¹ s⁻¹.

B2: NIH-CoVnb-112 (VHH)
VHH: B1 VHH with F27L, N53S, G55D, S107T
In the case of B2, the koff [2] is reported as 0.000236 s⁻¹, the kon [2] is reported as 223000 M⁻¹ s⁻¹ and the EC50 [3] is reported as 0.02 µg/mL and 1.11 nM. The “EC50 (read off the curve)” value [4] was ~0.01 µg/mL, the EC50 [5] was ~0.01 µg/mL and the koff [6] was 0.000295 s⁻¹. For the same binder, the kon [6] was 141000 M⁻¹ s⁻¹, the Kd [7] was 4.9 nM and the koff [7] was 0.000654 s⁻¹. The kon [7] was 130000 M⁻¹ s⁻¹, the Kd [8] was 2.1 nM and the binding result [9] was “no binding (tested: about 5 µg/mL)”.

B3: NIH-CoVnb-109 (VHH, not shown: large carriers)
VHH: B1 VHH with P14S, S52T, G55D, A98S, V99F
Binder B3 has a Kd [1] of 58.5 nM, a koff [1] of 0.00188 s⁻¹ and a kon [1] of 32100 M⁻¹ s⁻¹.

B4: NIH-CoVnb-113 (VHH)
VHH: B1 VHH with F27L, N53S, G55D, S107T, Q125L
B4 was tested, and the Kd [1] was 8.19 nM, the koff [1] was 0.000804 s⁻¹ and the kon [1] was 98200 M⁻¹ s⁻¹.

B5: NIH-CoVnb-103 (VHH, not shown: large carriers)
VHH: DVQLQESGGGLVQPGGSLRLSCAASGLTLDYYTIGWFRQAPGKEREGVSCISSSDDSTYYADSVKGRFTISRDNAKNTVYLQMNSLKPEDTAVYYCATAPGTYYKGSYYPMCHYYGMDYWGKGTQVTVSS
With B5 the Kd [1] was 9.43 nM, the koff [1] was 0.00286 s⁻¹ and the kon [1] was 303000 M⁻¹ s⁻¹.

B6: VHH72 (VHH)
VHH: QVQLQESGGGLVQAGGSLRLSCAASGRTFSEYAMGWFRQAPGKEREFVATISWSGGSTYYTDSVKGRFTISRDNAKNTVYLQMNSLKPDDTAVYYCAAAGLGTVVSEWDYDYDYWGQGTQVTVSS
B6: binds [10].
